Experimental data reported in article PMC2844450.

How the values were obtained:
Assay in all cases: enzyme inhibition kinetics
[1] = target: Bovine α-chymotrypsin (bovine)
[2] = target: Factor Xa (activated factor X), plasma protein
[3] = target: fXa-D189S (factor Xa with Asp-189 replaced by Ser)
[4] = target: Factor Xa (activated factor X), plasma protein; remark: listed apart in the source
[5] = target: fXa-D189S (factor Xa with Asp-189 replaced by Ser); remark: listed apart in the source

Human wild-type antithrombin (from UniProt P01008 33-464) (natural protein)
k2 (second-order association rate constant of inhibition), no heparin [1]: 83 M⁻¹ s⁻¹
k2 (second-order association rate constant of inhibition), no heparin [2]: 3090 M⁻¹ s⁻¹
k2 with heparin [2]: 4.35e+07 M⁻¹ s⁻¹
KD with heparin (ternary encounter complex, first step) [3]: 194 nM
k2 with heparin [3]: 1.02e+06 M⁻¹ s⁻¹
k2 with heparin (k/KD) [3]: 1e+06 M⁻¹ s⁻¹

ZPI in complex with protein Z (PZ) (from UniProt Q9UK55 22-444; P22891 41-400)
k2 (second-order rate constant of inhibition), presence of PZ [2]: 780000
k2 (second-order rate constant of inhibition), presence of PZ [3]: 830000

B1: Protein Z-dependent protease inhibitor, wild type (natural protein)
chain: LAPSPQSPETPAPQNQTSRVVQAPKEEEEDEQEASEEKASEEEKAWLMASRQQLAKETSNFGFSLLRKISMRHDGNMVFSPFGMSLAMTGLMLGATGPTETQIKRGLHLQALKPTKPGLLPSLFKGLRETLSRNLELGLTQGSFAFIHKDFDVKETFFNLSKRYFDTECVPMNFRNASQAKRLMNHYINKETRGKIPKLFDEINPETKLILVDYILFKGKWLTPFDPVFTEVDTFHLDKYKTIKVPMMYGAGKFASTFDKNFRCHVLKLPYQGNATMLVVLMEKMGDHLALEDYLTTDLVETWLRNMKTRNMEVFFPKFKLDQKYEMHELLRQMGIRRIFSPFADLSELSATGRNLQVSRVLQRTVIEVDERGTEAVAGILSEITAYSMPPVIKVDRPFHFMIYEETSGMLLFLGRVVNPTLL
k2 (second-order rate constant of inhibition), absence of PZ [4]: 1900
k2 (second-order rate constant of inhibition), absence of PZ [5]: 2300
